Literature values, collected in paper PMC5430804, “Structural and biochemical insights of CypA and AIF interaction” (Scientific Reports, 2017).
pKd: −log10 of the molar value.

Molecular target: AIF(Δ1-121) Δ1-121 (Homo sapiens) (UniProt O95831)
Sequence (O95831 1-121, stated change not applied): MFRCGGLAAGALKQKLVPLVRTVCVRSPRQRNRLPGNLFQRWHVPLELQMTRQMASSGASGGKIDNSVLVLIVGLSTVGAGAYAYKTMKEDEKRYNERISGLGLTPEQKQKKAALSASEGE

Sequence of CypA (P62937 2-165): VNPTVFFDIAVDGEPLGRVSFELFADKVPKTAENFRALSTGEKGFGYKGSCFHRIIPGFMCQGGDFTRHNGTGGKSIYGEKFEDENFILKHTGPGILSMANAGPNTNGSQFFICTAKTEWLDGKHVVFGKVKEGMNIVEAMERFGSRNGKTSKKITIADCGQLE

Substance: CypA (from UniProt P62937)
- pKd: 6.05
